Experimental data as given in patent US5474928A, “Arginine deiminase from a Mycoplasma arginini strain” (Nippon Mining Company, Limited, priority 1989, dated 1995).

Substrate: N=C(N)NCCC[C@H](N)C(=O)O
Assay: Km determination by Lineweaver-Burk plot analysis, citrulline formation assay
Assay type: biochemical, Mycoplasma arginini
Conditions: other: purified enzyme from M. arginini, substrate L-arginine, pH 7.0
Procedure: The activity of arginine deiminase can be determined by causing it to produce citrulline using the method reported by Fenske et. al. [J. Bacteriol. 126, 501-510 (1976)], and by measuring the amount of the yields using the method given by Archibald [J. Biol. Chem. 156, 121-142 (1944)].
Specifically, 20 μl of arginine deiminase solution is added to 1.0 ml of 10 mM arginine [dissolved in 0.1M phosphate buffer of pH 7.0], then an enzyme reaction is allowed to take place at 37° C. for 10 minutes, and the reaction is terminated by adding 1 ml of mixed acid solution (H2 SO4 :H3 PO4 =1:3). Then, the resultant reactive solution is added with 25 μl of 3% aqueous diacetylmonooxim solution, heated at 100° C. for 20 minutes under a light-shielded condition, left to cool under a room temperature for 30 minutes, and then the amount of the citrulline yield is measured quantitatively by measuring the absorbence at 490 nm. The activity of arginine deiminase producing 1 μmol of citrulline in one minute is defined as 1 unit.
v) Km value and Vmax value
By the Lineweaver-Burk plot analysis Km and Vmax were determined as 0.2 mM and 50 U/mg, respectively.

B1: Mycoplasma arginini (IFO 14476) arginine deiminase (EC 3.5.3.6), present invention, amino acid sequence of FIG. 4 (Mycoplasmopsis arginini) (protein)
chain: MSVFDSKFKGIHVYSEIGELESVLVHEPGREIDYITPARLDELLFSAILESHDARKEHKQFVAELKANDINVVELIDLVAETYDLASQEAKDKLIEEFLEDSEPVLSEEHKVVVRNFLKAKKTSRELVEIMMAGITKYDLGIEADHELIVDPMPNLYFTRDPFASVGNGVTIHYMRYKVRQRETLFSRFVFSNHPKLINTPWYYDPSLKLSIEGGDVFIYNNDTLVVGVSERTDLQTVTLLAKNIVANKECEFKRIVAINVPKWTNLMHLDTWLTMLDKDKFLYSPIANDVFKFWDYDLVNGGAEPQPVENGLPLEGLLQSIINKKPVLIPIAGEGASQMEIERETHFDGTNYLAIRPGVVIGYSRNEKTNAALEAAGIKVLPFHGNQLSLGMGNARCMSMPLSRKDVKW
notes: Arginine deiminase was purified from the M. arginini cell extract; endogenous in cells; host or cells: Mycoplasma arginini IFO 14476 cells (strain from the Institute for Fermentation, Osaka); enzyme purified in house by three chromatography steps
Km: 200 µM
